In assay [1] the target is soluble recombinant NKp65 ectodomain with proline at position 131 (NKp65-Pro131) (human) (UniProt D3W0D1). The experiment in a line: SPR; single-cycle kinetics, Biacore X100; 73.4 ± 12.4 RU biotinylated NKp65 immobilised on a streptavidin chip (Sensor Chip SA), pulsed 120 s with sKACL 0.247-20 nM, flow 30 µl/min, final dissociation 600 s; bivalent binding model. On the technique in general: SPR reads the build-up and loss of mass on a sensor chip optically.

Assay [2] has as its target soluble recombinant NKp65 ectodomain with threonine at position 131 (NKp65-Thr131) (human) (UniProt D3W0D1). The description is as above.
The target in assay [3] is T1, soluble recombinant NKp65 ectodomain with proline at position 131 (NKp65-Pro131) (human, UniProt D3W0D1 63-207, biotin on the N-terminal BirA tag (enzymatic, BirA ligase)).
T1 chain: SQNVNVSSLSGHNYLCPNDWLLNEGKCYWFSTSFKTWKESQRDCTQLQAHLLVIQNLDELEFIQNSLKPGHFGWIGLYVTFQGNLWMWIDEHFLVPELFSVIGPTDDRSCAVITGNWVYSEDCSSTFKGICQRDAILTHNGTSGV
In words: SPR; KD1 of bivalent fit, multi-cycle kinetics.

The target in assay [4] is T2, soluble recombinant NKp65 ectodomain with threonine at position 131 (NKp65-Thr131) (human, UniProt D3W0D1 63-207, substitution of proline by threonine at amino acid position 131, biotin on the N-terminal BirA tag (enzymatic, BirA ligase)).
T2 sequence: T1 chain with P69T
In words: SPR; KD1 of bivalent fit, multi-cycle kinetics.

Assay [5] deals with soluble recombinant NKp65 ectodomain with proline at position 131 (NKp65-Pro131) (human) (UniProt D3W0D1). The experiment in a line: SPR; mean of KD1 (bivalent model) from at least three measurements, protein produced independently twice, 2 different chip lots; biotinylated NKp65 immobilised on a streptavidin chip, sKACL as analyte; which runs were pooled is not told.
For assay [6], the target named is soluble recombinant NKp65 ectodomain with threonine at position 131 (NKp65-Thr131) (human) (UniProt D3W0D1). Described as above.

The text below walks through data of article PMC12349009 (2025).

Positions count from the first letter of the chain named.

B1: recombinant KACL ectodomain (sKACL) (ligand)
chain: WSKHAKPVACSGDWLGVRDKCFYFSDDTRNWTASKIFCSLQKAELAQIDTQEDMEFLKRYAGTDMHWIGLSRKQGDSWKWTNGTTFNGWFEIIGNGSFAFLSADGVHSSRGFIDIKWICSKPKYFL
For B1, the Kd in assay [1] is 2.6 nM; in assay [2] it was 20.3 nM; in assay [3] it was 13.6 nM; in assay [4], 57.1 nM. In addition, the KD1 (bivalent fit) turned out to be 8.2 nM in assay [5] and 35 nM in assay [6].
